Experimental data as given in US6489446 (HSC RESEARCH AND DEVELOPMENT LIMITED PARTNERSHIP, dated 2002).
Each block holds one binder with its values, some of them ahead of it.

Columns and labels:
[1] = biological target: T1, matrix of insoluble elastin prepared from chicken aortic tissue (chicken, UniProt P07916 25-750); test: estimate from bound radiolabelled MFU-1, assuming a 6 nm cross-sectional diameter
T1 construct: mature; Insoluble cross-linked tissue matrix, not a defined soluble protein; also called chicken elastin; chicken elastin matrix
T1 sequence (looked up): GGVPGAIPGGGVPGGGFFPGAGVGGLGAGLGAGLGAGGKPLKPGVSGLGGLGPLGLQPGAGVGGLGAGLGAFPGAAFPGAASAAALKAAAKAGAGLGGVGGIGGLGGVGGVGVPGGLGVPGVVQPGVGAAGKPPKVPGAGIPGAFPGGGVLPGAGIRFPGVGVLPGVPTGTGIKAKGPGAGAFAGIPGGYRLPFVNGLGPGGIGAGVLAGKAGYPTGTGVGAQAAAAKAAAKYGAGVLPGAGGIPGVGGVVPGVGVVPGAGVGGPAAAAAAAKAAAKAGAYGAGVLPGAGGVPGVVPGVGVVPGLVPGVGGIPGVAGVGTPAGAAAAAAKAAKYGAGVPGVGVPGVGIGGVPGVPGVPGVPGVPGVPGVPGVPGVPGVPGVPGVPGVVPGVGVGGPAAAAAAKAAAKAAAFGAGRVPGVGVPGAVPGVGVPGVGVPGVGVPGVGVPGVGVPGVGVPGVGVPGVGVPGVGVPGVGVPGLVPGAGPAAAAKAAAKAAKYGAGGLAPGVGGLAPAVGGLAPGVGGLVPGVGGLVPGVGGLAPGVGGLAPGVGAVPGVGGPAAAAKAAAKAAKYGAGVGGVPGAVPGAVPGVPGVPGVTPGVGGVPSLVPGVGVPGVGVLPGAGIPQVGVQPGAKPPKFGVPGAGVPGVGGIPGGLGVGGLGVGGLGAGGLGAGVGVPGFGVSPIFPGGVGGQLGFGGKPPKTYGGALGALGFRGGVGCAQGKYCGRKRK
Experimental: A matrix of insoluble elastin was prepared from chicken aortic tissue by a cyanogen bromide extraction method. This insoluble, non-human elastin matrix was incubated for 16 hours at 37° in phosphate-buffered saline, at pH 7.4, in the presence of radioactively labeled human MFU-1 prepared as described above. The tissue was then washed extensively with phosphate-buffered saline at pH 7.4.
Estimation of surface coverage assumed a cross-sectional diameter of the human MFU-1 of 6 nm. It was estimated that about 1–3 µg of human MFU-1 per mg chicken elastin matrix remained firmly associated with the insoluble matrix of chicken elastin.

[2] = biological target: the molecule itself; test: coacervation of MFU-2 in solution; self-association

surface coverage of the chicken elastin matrix [1]: ≤ 200 fold
B1: Minimal Functional Unit-1 (MFU-1) of human elastin (other)
chain: GAGGFPGFGVGVGGIPGVAGVPGVGGVPGVGGVPGVGISPEAQAAAAAKAAKYGVGTPAAAAAKAAAKAAQFGLVPGVGVAPGVGVAPGVGVAPGVGLAPGVGVAPGVGVAPGVGVAPAIGPGGVA
modifications: radioactively labeled valine and glycine (only in the chicken elastin experiments of Example 4)
notes: also called human elastin MFU-1; Fraction 1

B2: MFU-2 of human elastin (other)
chain: FPGFGVGVGGIPGVAGVPGVGGVPGVGGVPGVGISPEAQAAAAAKAAKYGVGTPAAAAAKAAAKAAQFGLVPGVGVAPGVGVAPGVGVAPGVGLAPGVGVAPGVGVAPGVGVAPAIGPEAQAAAAAKAAKYGVGTPAAAAAKAAAKAAQFGLVPGVGVAPGVGVAPGVGVAPGVGLAPGVGVAPGVGVAPGVGVAPAIGP
notes: Tandem duplicate of MFU-1, expressed with techniques similar to those for MFU-1
binding result [2]: binds
